In patent US20110280881A1, “NOVEL ANTI-HSP90 MONOCLONAL ANTIBODY” (RIKEN, priority 2010, published 2011):

B1: 6H8: anti-HSP90 monoclonal antibody produced by hybridoma FERM BP-11222; epitope … (antibody)
VH: QVQLQQSGPELVKPGASVRISCKASGYTFTSYYIHWVKQRPGQGLEWIGWIYPGNVNTKYNEKFKGKATLTADKSSSTAYMQLSSLTSEDSAVYFCARYGNYPFAYWGQGTLVTVSAAKTTAPSVYPLAPVCGDTTGSSVTLGCLVKGYF
VL: DVVMTQTPLSLPVSLGDQASISCRSSQSLVHSNGNTYLHWYLQKPGQSPKLLIYKVSNRFSGVPDRFSGSGSGTDFTLKISRVEAEDLGVYFCSQSTHVPPTFGGGTKLEIKRADAAPTVSIFPPSSEQLTSGGASVVCFLNNFYPKDINVKWKIDGS
B2: 6H8-OVA: high molecular weight conjugate of the 6H8 antibody and maleimide-activated OVA (conjugate)
VH: B1 VH
VL: B1 VL
chain: GSIGAASMEFCFDVFKELKVHHANENIFYCPIAIMSALAMVYLGAKDSTRTQINKVVRFDKLPGFGDSIEAQCGTSVNVHSSLRDILNQITKPNDVYSFSLASRLYAEERYPILPEYLQCVKELYRGGLEPINFQTAADQARELINSWVESQTNGIIRNVLQPSSVDSQTAMVLVNAIVFKGLWEKAFKDEDTQAMPFRVTEQESKPVQMMYQIGLFRVASMASEKMKILELPFASGTMSMLVLLPDEVSGLEQLESIINFEKLTEWTSSNVMEERKIKVYLPRMKMEEKYNLTSVLMAMGITDVFSSSANLSGISSAESLKISQAVHAAHAEINEAGREVVGSAEAGVDAASVSEEFRADHPFLFCIKHIATNAVLFFGRCVSP

Legend:
OT-I CD8+ T cells [1] = experiment: In vivo cross-presentation assay with free 6H8 antibody administered concurrently; parameters: species or system mouse; details: 72 hours
Experimental: (1) CFSE-labeled CD8^+ T cells of an OT-I/CD45.1 mouse were transferred to recipient mice from the tail vein, with 6H8-OVA [or 6H8 (F(ab′)2)—OVA, or OVA, or IgG2a-OVA] (0.3 μg) and the free 6H8 antibody [or 6H8 (F(ab′)2) or IgG2a] (30 μg) administered from the tail vein concurrently. (2) 72 hours later, the spleen was recovered from each mouse, and 2×10^6 splenocytes were stained with the PE-CD45.1 antibody in a 96-well round-bottomed plate for 30 minutes (while cooling on ice). (3) The CFSE intensity of CD45.1-positive cells (OT-I CD8^+ T cells) was determined using FACS Canto (BD).

[2] = tested on: cell surface HSP90 on DC2.4 cells; experiment: Inhibition of 6H8-OVA cross-presentation by pre-treatment of DC2.4 cells with antibodies; format: cell-based; details: antibody 20 μg/ml 15 minutes, then 6H8-OVA 3 or 1 μg/ml, IFNγ ELISA
Experimental: Pellets of DC2.4 cells (1.5×10^6 cells) were incubated with 20 μg/ml of each antibody [6H8D2 (6H8), 2A6E9 (2A6) or 4B6G12 (456)] at 37° C. with 5% CO2 for 15 minutes. Subsequently, 6H8-OVA was added to a concentration of 3 or 1 μg/ml, and the pellets were incubated at 37° C. with 5% CO2 for 3 hours. After being washed to remove the unreacted antibody and 6H8-OVA, the cells were fixed in 0.5% para-formaldehyde. These cells (1×10^4 cells) were co-cultured with 1×10^5 OT-I CD8^+ T cells in a 96-well round-bottomed plate at 37° C. with 5% CO2; the supernatant was recovered as appropriate and assayed for IFNγ according to a standard ELISA method.

OT-I CD8+ T cells [3] = experiment: In vivo OT-I CD8+ T cell proliferation by 6H8-OVA after 6H8 antibody given in advance; parameters: species or system mouse; details: 6H8 antibody 20 μg in advance, 6H8-OVA (0.3 mg), tail vein, 72 hours
Experimental: The 6H8 antibody or IgG2a [normal mouse IgG2a (nmIgG2a), 20 μg] was diluted with 200 μl of PBS and administered to B6 mice from the tail vein. As a control, a group of animals that received PBS alone was also prepared.
Subsequently, CFSE-labeled OT-I CD8^+ T cells ([…]) were suspended in 200 μl of RPMI and administered from the tail vein. Concurrently, 6H8-OVA (0.3 mg) diluted with 200 μl of PBS was administered from the tail vein. As a control, a group of animals that received PBS alone was also prepared.
72 hours later, splenocytes were recovered from each recipient mouse, and decay of CFSE intensity were measured using FACS Calibur (BD Biosciences) to confirm the proliferation of transferred cells.

OT-II CD4+ T cells = experiment: In vitro antigen presentation assay, DC2.4 cells with OT-II CD4+ T cells, IFNγ; format: cell-based, mouse; details: DC2.4 pulsed with series of doses, IFNγ secreted
Experimental: Next, DC2.4 cells were pulsed with a series of doses of 6H8-OVA (fractions 15 to 19) and free OVA (fraction 33) and incubated along with OT-I CD8^+ T cells and OT-II CD4^+ T cells [splenocytes of an OT-II mouse were recovered, and CD11b-positive cells were removed according to a standard protocol using BD IMag anti mouse CD11b magnetic particles DM (BD Biosciences Pharmingen, 558013); next, CD4-positive cells were purified according to a standard protocol using BD IMag anti mouse CD4 particles DM (BD Biosciences Pharmingen, 551539); the cells obtained were used as the OT-II CD4^+ T cells], and the amount of IFNγ secreted from T cells was measured, whereby the cross-presentation potential of 6H8-OVA was evaluated.

cell surface HSP90 = experiment: FACS of 6H8-OVA bound to DC2.4 and DC2.4L cells with anti-OVA antibody; format: binding
Experimental: Furthermore, using DC2.4L cells lacking cell surface HSP90 (a line detectable with 6H8 antibody, and showing decreased expression levels of cell surface HSP90 and H-2K^b; obtained during cultivation of DC2.4 and established by passage culture), the specificity of 6H8-OVA for cell surface HSP90 was examined. DC2.4 and DC2.4L cells were incubated along with the fractions 15 to 19 containing 6H8-OVA (mixture) (30 μg/ml), after which the cells were stained with the biotinylated anti-OVA monoclonal antibody and PE-Cy5 streptavidin, and analyzed by FACS.

[4] = tested on: cytotoxic T cells specific for OVA257-264 epitope; experiment: Induction of OVA257-264-specific cytotoxic T cells by immunization (tetramer staining, 51Cr release); format: in vivo; details: 3 μg per mouse
Experimental: The mice were immunized twice at a 1-week interval. One week after second immunization, splenocytes were cultured in the presence of the OVA257-264 peptide for 5 days. The resulting cytotoxic T cells were monitored by tetramer staining [T cells were stained using T-Select H-2K^b OVA Tetramer-[…]-PE (MBL, TS5001-1, amount used=1 test/tube) at room temperature for 30 minutes], and standard ^51Cr release assay [2×10^6 each of mouse tumor cells E.G7, supplied by Dr. Michael Bevan at the University of Washington, U.S.A. (see Cell vol. 54:777-785, 1988), and EL4 (purchased from ATCC) were labeled with 50 microcuries of sodium ^51Cr, and used as the target cells; the cytotoxic T cells were added to 5×10^3 target cells as indicated in FIG. 8E; after cultivation for 4 hours, free ^51Cr in the supernatant was measured to calculate the cytotoxic activity; the EL4 cells with or without pulsing with the peptide OVA257-264 were prepared].

Molecule	effect of concurrently administered free antibody on OT-I CD8+ T cell proliferation reaction by 6H8-OVA (OT-I CD8+ T cells [1]; free antibody 30 μg with 6H8-OVA 0.3 μg)	effect of antibody pre-treatment on the cross-presentation effect of 6H8-OVA [2]	effect on promotion of proliferation of CD8+ T cells by 6H8-OVA (OT-I CD8+ T cells [3])	antigen presentation to OT-II CD4+ T cells (OT-II CD4+ T cells)	proliferation reaction of adoptively transferred OT-I CD8+ T cells (OT-I CD8+ T cells [1]; 0.3 μg alone)	staining of DC2.4L cells with anti-OVA antibody after incubation with conjugate (cell surface HSP90; DC2.4L cells lacking cell surface HSP90, 30 μg/ml)	staining of DC2.4 cells with anti-OVA antibody after incubation with conjugate (cell surface HSP90; DC2.4 cells expressing cell surface HSP90, 30 μg/ml)	tetramer-positive cells after immunization ([4]; twice at 1-week interval, splenocytes cultured with OVA257-264 5 days)	cytotoxicity in 51Cr release assay ([4]; twice, target cells E.G7, EL4 with or without OVA257-264)
B1	remarkably enhanced	attenuated	enhanced						
B2				weak, although it was better than free OVA	slight proliferation reaction	not recognized by the OVA monoclonal antibody	recognized by the anti-OVA monoclonal antibody	produced tetramer-positive cells	cytotoxicity to OVA257-264 epitope was also observed
